Paper PMC5070868

Columns and labels:
Assay in all cases: flow cytometry on cells; PBMCs of SLA class I haplotype-defined Microminipigs stained with X2F6 followed by anti-mouse IgG-FITC; lymphoid gate; also after TSST-1 or IFN-γ stimulation
[1] = target: classical class I SLA on PBMCs of Hp-17.0 homozygous Microminipigs
[2] = target: classical class I SLA on PBMCs of Hp-35.0 homozygous Microminipigs
[3] = target: classical class I SLA on PBMCs of Hp-10.0 homozygous Microminipigs

MFI [1]: 122 | MFI [2]: 767 | MFI [3]: 1900
B1: X2F6 monoclonal antibody (antibody, V domains shown)
VH: QVQLQQSGAELVKPGASVKLSCKASGYTFTSYDINWVRQRPEQGLEWIGWIYPGDGSTKYNEKFKGKATLTTDKSSSTAYMQLSRLTSEDSAVYFCASPYYYGSSPFAYWGQGTLVTVSA
VL: DIQMTQSPASLSASVGETVTITCRASENIYSYLAWYQQKQGKSPQLLVYNAKTLAEGVPSRFSGSGSGTQFSLKINSLQPEDFGSYYCQHHYGTPRTFGGGTKLEIK
